Where no end group is shown, it is not given here.
Key:
[1] = target: T1, ALFA-tagged target immobilized for SPR (TST-NEDD8-ALFA or GFP-ALFA) (synthetic construct, not fully specified); assay: SPR; ligand GFP-ALFA
T1 chain: SRLEEELRRRLTE

NbALFAPE = assay: SPR; ligand TST-NEDD8-ALFA

B1: NbALFA (non-tagged) (VHH)
VHH: EVQLQESGGGLVQPGGSLRLSCTASGVTISALNAMAMGWYRQAPGERRVMVAAVSERGNAMYRESVQGRFTVTRDFTNKMVSLQMDNLKPEDTAVYYCHVLEDRVDSFHDYWGQGTQVTVSS
- koff [1]: 9.4e-06 s⁻¹

Binder: SRLEEELRRRLTE (other) [ALFA-tagged target immobilized for SPR (TST-NEDD8-ALFA or GFP-ALFA)]
- Kd (NbALFAPE): 11 nM
- koff (NbALFAPE): 0.0029 s⁻¹
